Assay results published in US20260258143A1 (ODYSSEY THERAPEUTICS, published 2026).
Numbering of substitutions follows the chain as printed.

T1: human CD25-extracellular domain (CD25-ECD) (human, UniProt P01589 22-240)
T1 construct: also called human CD25-ECD; hCD25 ECD
T1 sequence: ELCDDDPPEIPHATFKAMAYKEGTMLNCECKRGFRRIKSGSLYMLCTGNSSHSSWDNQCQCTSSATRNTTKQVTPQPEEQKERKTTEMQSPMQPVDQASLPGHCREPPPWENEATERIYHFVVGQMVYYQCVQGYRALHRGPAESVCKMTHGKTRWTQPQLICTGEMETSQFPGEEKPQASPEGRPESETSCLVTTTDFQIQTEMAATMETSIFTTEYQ

B1: ODY-83B05Hu1 (VHH)
VHH: EVQLLESGGGLVQPGGSLRLSCAASGFTLDYYAIGWFRQAPGKEREGVLSISSTDGRTYYADSVKGRFTISRDNPKNTVYLQLNSLRPEDTAVYYCAAKRLGPMVHRYSLEVLTPLFLDEYDYWGQGTQVTVSS
notes: Captured on an SPR chip spot; also called ODY-83B05 humanized VHH; ODY-83805Hu1
B2: ODY-83F07Hu1 (VHH)
VHH: B1 VHH with R107Q
notes: Captured on an SPR chip spot; also called ODY-83F07 humanized VHH
B3: ODY-83B03Hu1 (VHH)
VHH: EVQLVESGGGLVQPGGSLRLSCAASGMPLVAMGWYRQAPGKQRELVASISSGGNTGYADSVKGRFTISRDNAKKTVYLQMNSVRPEDTGVYYCNIYRSQVPPTRYSWGQGTQVTVSS
notes: Captured on an SPR chip spot; also called ODY-83B03 humanized VHH

target: T1, human CD25-extracellular domain …; experiment: SPR, V-body on chip, human CD25-ECD 500 nM then IL2-Fc 1000 nM
Method: The sensorgrams display IL2-Fc competition: association of human CD25-extracellular domain (ECD) to the V-body followed either by additional binding by IL2-Fc, Indicating an unoccupied epitope (non-overlapping epitopes), or no IL2-Fc binding, indicating epitope blocking (overlapping epitopes), and a buffer control, association and dissociation of human CD25-ECD in the absence of IL2-Fc. Human CD25-ECD was injected (500 nM) under physiological conditions (50 mM HEPES pH 7.4, 150 mM NaCl, 0.1% (w/v) BSA, 0.05% (v/v) Tween20, 25° C.) followed by human IL2-Fc (1000 nM). V-body ODY-83B03Hu1 was identified as a ligand competitive binder. ODY-83B05Hu1 and ODY-83F07Hu1 were identified as non-competitive binders.

Binding result, binds:
B1, B2, B3
